Test results taken from paper PMC10090020.

Molecular target: mCherry-CARACB(G15V) (barley (Hordeum vulgare))
Assay: FRET or BRET; FLIM-FRET in barley epidermal cells transiently co-expressing meGFP-RIC157 (donor) and mCherry-RACB forms (acceptor) after particle bombardment; meGFP lifetime measured at the equatorial plane; at least 10 cells per interaction in two replicates

meGFP-RIC157 (natural protein)
meGFP fluorescence lifetime: 2.2 ns
